Experiments:
SHP2-C SH2 = assay: SH2 binding enrichment of the phosphorylated peptide, bacterial display (enrichment ratio); higher = better substrate or ligand; peptides without Tyr show the background
c-Src SH2 = assay: as above
Grb2 SH2 = Grb2 SH2 (UniProt P62993); assay: as above
MERTK = MERTK (UniProt Q12866); assay: phosphorylation enrichment, bacterial display (enrichment ratio); higher = better substrate or ligand; peptides without Tyr show the background
FGFR3 = FGFR3 (UniProt P22607); assay: as above
Fer (mouse) = assay: as above
FGFR1 = FGFR1 (UniProt P11362); assay: as above
EPHB2 = EPHB2 (UniProt P29323); assay: as above
c-Src = assay: as above
c-Abl (mouse) = assay: as above
AncSZ = assay: as above
EPHB1 = EPHB1 (UniProt P54762); assay: as above
Fyn = Fyn (UniProt P06241); assay: as above
Hck = Hck (UniProt P08631); assay: as above
Jak2 = Jak2 (UniProt O60674); assay: as above
Fes = Fes (UniProt P07332); assay: as above
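Wherever SH2 binding enrichment of the phosphorylated peptide, bacterial display is given: peptide library displayed on the E. coli surface as eCPX fusions, selected cells deep-sequenced, score is each peptide's frequency after selection divided by its frequency in the input.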
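Wherever phosphorylation enrichment, bacterial display is given: 11-residue human phosphosite peptides and single-mutation variants displayed on the E. coli surface, counted by deep sequencing, each peptide's frequency after selection divided by its frequency in the unselected input library; frequency after pTyr selection over input frequency; kinase dosed for 20-30% of maximal phosphorylation in three min.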

Chain of MERTK (Q12866 whole entry, looked up): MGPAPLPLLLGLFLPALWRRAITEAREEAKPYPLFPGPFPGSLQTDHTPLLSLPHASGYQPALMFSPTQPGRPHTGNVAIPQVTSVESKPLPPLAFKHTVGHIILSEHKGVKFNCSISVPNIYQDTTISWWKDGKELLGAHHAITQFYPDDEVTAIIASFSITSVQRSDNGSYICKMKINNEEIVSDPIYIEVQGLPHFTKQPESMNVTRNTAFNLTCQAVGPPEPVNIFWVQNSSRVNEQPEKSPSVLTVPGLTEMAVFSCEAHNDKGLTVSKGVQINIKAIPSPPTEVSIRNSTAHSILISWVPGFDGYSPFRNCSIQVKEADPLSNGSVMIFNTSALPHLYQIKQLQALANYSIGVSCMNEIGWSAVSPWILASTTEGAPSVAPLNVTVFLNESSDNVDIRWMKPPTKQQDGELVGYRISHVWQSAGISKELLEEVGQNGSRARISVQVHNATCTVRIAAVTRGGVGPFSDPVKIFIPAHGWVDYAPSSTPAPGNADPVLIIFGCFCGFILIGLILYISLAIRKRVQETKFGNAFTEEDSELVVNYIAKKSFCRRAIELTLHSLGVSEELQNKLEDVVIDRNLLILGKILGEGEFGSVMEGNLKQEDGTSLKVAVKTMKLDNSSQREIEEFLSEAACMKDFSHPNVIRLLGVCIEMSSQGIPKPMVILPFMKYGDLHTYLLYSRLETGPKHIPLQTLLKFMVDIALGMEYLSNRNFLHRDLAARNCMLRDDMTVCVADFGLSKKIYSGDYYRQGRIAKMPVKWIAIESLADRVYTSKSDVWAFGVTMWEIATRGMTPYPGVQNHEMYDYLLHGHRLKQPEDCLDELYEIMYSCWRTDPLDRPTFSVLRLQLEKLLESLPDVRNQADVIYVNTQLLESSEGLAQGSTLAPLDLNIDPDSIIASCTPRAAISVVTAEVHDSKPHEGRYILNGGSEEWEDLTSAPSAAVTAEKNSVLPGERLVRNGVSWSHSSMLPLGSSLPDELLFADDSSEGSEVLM
Chain of EPHB1 (P54762 whole entry, looked up): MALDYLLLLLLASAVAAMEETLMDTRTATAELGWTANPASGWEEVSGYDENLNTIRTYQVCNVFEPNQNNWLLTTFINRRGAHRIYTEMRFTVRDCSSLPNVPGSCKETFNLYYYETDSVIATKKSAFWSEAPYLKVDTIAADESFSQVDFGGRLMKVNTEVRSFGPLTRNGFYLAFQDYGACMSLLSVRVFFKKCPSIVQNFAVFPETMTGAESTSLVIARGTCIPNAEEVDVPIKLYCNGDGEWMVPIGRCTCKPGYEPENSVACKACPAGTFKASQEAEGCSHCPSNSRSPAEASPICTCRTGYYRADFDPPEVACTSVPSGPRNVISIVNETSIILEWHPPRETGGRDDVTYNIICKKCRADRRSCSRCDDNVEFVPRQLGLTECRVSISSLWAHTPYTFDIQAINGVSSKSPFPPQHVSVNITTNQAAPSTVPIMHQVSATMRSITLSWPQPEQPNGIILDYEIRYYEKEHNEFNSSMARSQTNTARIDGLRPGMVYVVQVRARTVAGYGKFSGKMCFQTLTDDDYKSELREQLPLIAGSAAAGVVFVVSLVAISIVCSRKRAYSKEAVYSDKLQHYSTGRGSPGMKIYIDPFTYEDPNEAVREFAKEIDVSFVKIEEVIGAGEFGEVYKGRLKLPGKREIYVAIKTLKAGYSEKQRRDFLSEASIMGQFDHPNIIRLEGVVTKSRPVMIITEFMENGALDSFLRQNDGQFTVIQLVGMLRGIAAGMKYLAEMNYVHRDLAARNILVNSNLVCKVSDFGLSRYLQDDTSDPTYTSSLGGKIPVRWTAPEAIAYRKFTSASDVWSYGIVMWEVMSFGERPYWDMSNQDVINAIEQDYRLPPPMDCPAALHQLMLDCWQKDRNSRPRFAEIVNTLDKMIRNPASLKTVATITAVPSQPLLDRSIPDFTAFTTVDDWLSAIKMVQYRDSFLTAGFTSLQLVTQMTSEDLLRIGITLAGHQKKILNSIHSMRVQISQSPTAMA
Chain of FGFR3 (P22607 whole entry, looked up): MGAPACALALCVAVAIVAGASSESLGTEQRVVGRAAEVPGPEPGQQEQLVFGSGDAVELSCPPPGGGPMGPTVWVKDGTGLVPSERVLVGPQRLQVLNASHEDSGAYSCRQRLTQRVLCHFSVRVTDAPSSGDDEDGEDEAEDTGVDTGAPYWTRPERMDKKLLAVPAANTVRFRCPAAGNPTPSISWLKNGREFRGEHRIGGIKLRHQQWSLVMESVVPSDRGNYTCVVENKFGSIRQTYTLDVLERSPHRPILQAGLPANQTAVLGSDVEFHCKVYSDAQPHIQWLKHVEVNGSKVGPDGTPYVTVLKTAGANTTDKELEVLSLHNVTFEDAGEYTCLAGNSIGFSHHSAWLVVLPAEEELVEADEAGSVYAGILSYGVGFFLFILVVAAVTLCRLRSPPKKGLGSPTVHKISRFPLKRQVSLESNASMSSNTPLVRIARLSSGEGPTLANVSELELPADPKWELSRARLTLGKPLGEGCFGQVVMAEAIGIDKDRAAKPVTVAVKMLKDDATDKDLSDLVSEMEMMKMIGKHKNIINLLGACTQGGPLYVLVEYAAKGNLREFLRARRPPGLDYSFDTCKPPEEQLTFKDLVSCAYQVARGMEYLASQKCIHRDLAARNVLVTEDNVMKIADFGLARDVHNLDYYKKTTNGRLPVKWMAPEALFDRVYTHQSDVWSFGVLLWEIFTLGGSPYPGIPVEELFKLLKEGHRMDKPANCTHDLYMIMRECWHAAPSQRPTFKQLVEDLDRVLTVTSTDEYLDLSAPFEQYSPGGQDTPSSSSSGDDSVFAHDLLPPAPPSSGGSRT
Chain of EPHB2 (P29323 whole entry, looked up): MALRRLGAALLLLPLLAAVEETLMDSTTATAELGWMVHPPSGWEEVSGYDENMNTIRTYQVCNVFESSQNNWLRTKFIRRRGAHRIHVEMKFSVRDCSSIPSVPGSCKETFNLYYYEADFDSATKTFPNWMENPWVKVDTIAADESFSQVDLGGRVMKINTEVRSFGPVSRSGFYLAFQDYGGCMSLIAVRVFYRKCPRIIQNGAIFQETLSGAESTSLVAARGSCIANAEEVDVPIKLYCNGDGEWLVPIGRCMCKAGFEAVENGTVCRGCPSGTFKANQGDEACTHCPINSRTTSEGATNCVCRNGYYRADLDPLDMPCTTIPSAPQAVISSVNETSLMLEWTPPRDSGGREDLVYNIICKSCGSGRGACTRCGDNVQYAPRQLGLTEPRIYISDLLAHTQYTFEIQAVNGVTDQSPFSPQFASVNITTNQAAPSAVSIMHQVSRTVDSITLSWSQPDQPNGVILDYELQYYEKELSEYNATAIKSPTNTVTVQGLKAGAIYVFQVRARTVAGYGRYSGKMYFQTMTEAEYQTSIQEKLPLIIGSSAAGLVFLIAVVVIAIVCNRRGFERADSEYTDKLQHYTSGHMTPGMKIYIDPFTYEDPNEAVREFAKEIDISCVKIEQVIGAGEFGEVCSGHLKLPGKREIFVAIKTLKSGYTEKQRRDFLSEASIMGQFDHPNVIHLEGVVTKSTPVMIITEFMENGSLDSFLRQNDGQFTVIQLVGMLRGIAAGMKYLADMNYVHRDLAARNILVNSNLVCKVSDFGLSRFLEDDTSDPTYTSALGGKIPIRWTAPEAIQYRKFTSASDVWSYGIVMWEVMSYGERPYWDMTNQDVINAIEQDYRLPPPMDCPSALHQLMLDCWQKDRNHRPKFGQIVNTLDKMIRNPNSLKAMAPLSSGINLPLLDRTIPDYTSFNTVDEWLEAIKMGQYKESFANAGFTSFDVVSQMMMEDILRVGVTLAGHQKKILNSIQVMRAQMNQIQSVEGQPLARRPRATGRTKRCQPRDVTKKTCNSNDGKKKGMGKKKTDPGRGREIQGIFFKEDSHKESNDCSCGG
Chain of Hck (P08631 whole entry, looked up): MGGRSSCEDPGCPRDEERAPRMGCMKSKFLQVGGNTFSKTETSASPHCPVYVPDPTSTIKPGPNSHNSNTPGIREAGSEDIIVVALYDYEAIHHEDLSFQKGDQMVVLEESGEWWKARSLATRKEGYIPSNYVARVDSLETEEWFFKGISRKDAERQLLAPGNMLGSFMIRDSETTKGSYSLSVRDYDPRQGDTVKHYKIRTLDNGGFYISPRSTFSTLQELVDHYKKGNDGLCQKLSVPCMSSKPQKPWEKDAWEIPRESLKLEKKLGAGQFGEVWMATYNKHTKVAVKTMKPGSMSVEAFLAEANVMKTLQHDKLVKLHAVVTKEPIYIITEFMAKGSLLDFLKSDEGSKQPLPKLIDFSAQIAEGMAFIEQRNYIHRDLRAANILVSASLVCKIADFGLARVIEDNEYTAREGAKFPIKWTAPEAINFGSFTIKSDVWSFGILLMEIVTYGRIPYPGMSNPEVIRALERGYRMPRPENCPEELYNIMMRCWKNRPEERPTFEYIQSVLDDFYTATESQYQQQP
Chain of Fyn (P06241 whole entry, looked up): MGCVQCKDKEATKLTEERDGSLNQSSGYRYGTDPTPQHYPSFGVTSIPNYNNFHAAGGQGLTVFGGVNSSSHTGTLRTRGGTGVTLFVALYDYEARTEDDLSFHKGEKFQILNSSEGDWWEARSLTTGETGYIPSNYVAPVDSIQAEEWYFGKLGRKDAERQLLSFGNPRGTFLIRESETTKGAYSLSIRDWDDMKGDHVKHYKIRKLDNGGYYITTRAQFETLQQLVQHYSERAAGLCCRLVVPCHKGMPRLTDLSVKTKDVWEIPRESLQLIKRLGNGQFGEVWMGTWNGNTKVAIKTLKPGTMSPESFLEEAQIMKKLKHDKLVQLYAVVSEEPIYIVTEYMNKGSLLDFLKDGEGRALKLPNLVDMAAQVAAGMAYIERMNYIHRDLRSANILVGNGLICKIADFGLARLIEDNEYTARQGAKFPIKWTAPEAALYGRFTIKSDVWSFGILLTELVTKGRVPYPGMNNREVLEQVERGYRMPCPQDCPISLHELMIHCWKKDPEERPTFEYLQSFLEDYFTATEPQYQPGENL

Row | SH2 binding enrichment (SHP2-C SH2) | SH2 binding enrichment (c-Src SH2) | SH2 binding enrichment (Grb2 SH2) | Sequence | phosphorylation enrichment (MERTK) | phosphorylation enrichment (FGFR3) | phosphorylation enrichment (Fer (mouse)) | phosphorylation enrichment (FGFR1) | phosphorylation enrichment (EPHB2) | phosphorylation enrichment (c-Src) | phosphorylation enrichment (c-Abl (mouse)) | phosphorylation enrichment (AncSZ) | phosphorylation enrichment (EPHB1) | phosphorylation enrichment (Fyn) | phosphorylation enrichment (Hck) | phosphorylation enrichment (Jak2) | phosphorylation enrichment (Fes)
1 | 0.744 | 4.32 | 1.12 | AAAAMYTFLPD [MYORG_Y36] | 10.9 | 12 | 1 | 13.5 | 1.46 | 4.45 | 1 | 1.26 | 2.82 | 1.61 | 4.23 | 1.31 | 1.12
2 | 1.08 | 0.73 | 0.888 | RSFPSYFTSHV [NEFL_Y442_YF] | 0.629 | 0.634 | 0.525 | 0.899 | 0.761 | 0.481 | 0.772 | 0.869 | 0.672 | 0.65 | 0.477 | 1.8 | 0.887
3 | 0.783 | 0.393 | 0.871 | GGTTMYPGIAD [ACTC1_Y308] | 0.418 | 0.576 | 0.408 | 0.451 | 0.419 | 0.484 | 0.561 | 0.854 | 0.424 | 0.493 | 0.437 | 0.766 | 0.722
4 | 0.769 | 0.674 | 0.865 | EHAGEYGAEAL [HBA1_Y25_A20E] | 0.455 | 0.681 | 0.427 | 0.595 | 0.543 | 0.468 | 0.612 | 0.832 | 0.423 | 0.489 | 0.592 | 0.693 | 0.896
5 | 0.722 | 0.571 | 0.645 | HRGHLYLAIEF [TEK_Y899_Y897H_YF] | 1.64 | 1.79 | 1.38 | 1.41 | 1.67 | 2.63 | 9.68 | 3.67 | 1.78 | 1.49 | 1.5 | 6.33 | 8.12
6 | 1.22 | 0.901 | 1.25 | CLMILYRLKER [PTPRR_Y249] | 0.364 | 0.809 | 0.501 | 0.509 | 0.603 | 0.388 | 0.576 | 1.26 | 0.444 | 0.5 | 0.494 | 0.997 | 1.23
7 | 0.797 | 0.556 | 0.992 | KSIDEYLKLVG [RASAL2_Y381_E379D] | 0.34 | 0.445 | 0.374 | 0.465 | 0.596 | 0.37 | 0.449 | 0.843 | 0.378 | 0.406 | 0.489 | 0.761 | 0.73
8 | 0.399 | 0.485 | 0.805 | KDQGGYAMHQD [MAPT_Y29_T30A] | 0.426 | 0.574 | 0.419 | 0.329 | 0.476 | 0.487 | 0.557 | 0.677 | 0.406 | 0.392 | 0.471 | 0.528 | 0.798
9 | 0.788 | 0.532 | 0.799 | DYNPNYCFAGK [ALK_Y1096] | 0.906 | 0.778 | 0.735 | 0.641 | 1.07 | 0.63 | 0.812 | 1.82 | 2.62 | 0.607 | 0.563 | 0.873 | 1.03
10 | 0.565 | 0.439 | 0.816 | DLDTDYGSGYP [RNASEH2A_Y206] | 0.554 | 0.879 | 0.682 | 0.689 | 0.648 | 0.652 | 1.21 | 1.36 | 0.691 | 0.852 | 0.589 | 1.14 | 1.47
11 | 0.826 | 0.91 | 0.823 | FPAVGYHKPHI [IDS_Y225_L221P] | 0.374 | 0.565 | 0.436 | 0.412 | 0.467 | 0.41 | 0.602 | 0.638 | 0.393 | 0.472 | 0.394 | 0.625 | 0.601
12 | 0.641 | 0.713 | 1.25 | LKVKAYRFSIS [LCT_Y974] | 0.493 | 0.835 | 0.52 | 0.9 | 0.498 | 0.463 | 0.824 | 0.911 | 0.672 | 0.648 | 0.6 | 1.3 | 1.22
13 | 0.698 | 0.561 | 1.14 | HELFVYKCDEN [DOCK3_Y548_YF] | 0.76 | 1.53 | 1.15 | 0.995 | 1.13 | 1.18 | 1.5 | 2.31 | 1.13 | 1.54 | 1.19 | 1.95 | 2.21
14 | 0.54 | 0.671 | 0.663 | RVEDAYILTCN [CCT6A_Y229] | 0.498 | 0.689 | 4.93 | 0.721 | 0.487 | 1 | 0.565 | 1.07 | 0.515 | 0.839 | 0.692 | 0.772 | 0.928
15 | 0.737 | 0.47 | 0.83 | ENQEIYQKAFD [KPNA1_Y493] | 0.616 | 0.643 | 0.686 | 0.522 | 0.576 | 1.45 | 1.03 | 1.43 | 0.579 | 0.866 | 1.2 | 1.08 | 1.15
16 | 0.983 | 0.679 | 0.869 | KKRSVYLKVLF [CC2D2A_Y683] | 0.361 | 0.721 | 0.478 | 0.494 | 0.543 | 0.391 | 0.706 | 1.01 | 0.453 | 0.446 | 0.401 | 0.897 | 1.19
